Assay: soluble on expression in E. coli; label from the status in PepcDB or PDB records

Row | Sequence | soluble on expression in E. coli
1 | MLKPETIHISGPAGILETIHIPSEQVPARGVAVINHPNPLQGGTNTNKVIQTAAKALSKLGFHCYLPNLRGVGGSGGTHDYGRGETQDCLAVIDYARAQHPEAPEFALSGFSFGGYVATFAAQARTPDLLLLIGAAVCHYTDRPEPSAVPNVAKTLMIHGAEDEVVEIGKALKWAEPQDLPVITIAGSTHFFHGKLIVLRDTILRFAPVCLNG | not soluble
2 | MLKTPLYESHMAANAKMVDFSGWSMPINYGSQIQEHNNVREDCGIFDVSHMLAVDIQGSEAEKFLRYLLANDVAKLQENKAQYGCMLNHDAGIVDDLITYKVTDEHFRIVVNAGNRESDVAWFNQNAQNFDVAITPQTDLAIVAVQGPKAVAVIKRVVTKEIATEIEALLPFSFKFFSKWMVARTGYTGEDGFEVILPATQVKKFWDSLLENGAQPAGLGARDTLRLEAGMHLYGADMDTSTTPLERGLGWSVDLSDEHRDFIGKKAYFAKKAQGVDTKWVGVVLKTKGVLRAGQEIDFDNGEKGYITSGSFSPTLKVAIGLAYVPKQADNPVVNIRGKELEVELVKPKFVKNGKSLI | not soluble
3 | MLLALKGIRKVYRMGEVAFSALKGVDLEVEEGEMLAIMGPSGSGKSTLLHILGLLDRPTEGEYVLMDRPTSRLAEDERAFLRNRFLGFVFQAFFLLPRLSALENVEVPLAYAGVPPGTRRRRALELLERVGLLEKANNLPNQLSGGQRQRVAIARALALNPPLLLADEPTGALDTRTGEEILALFQELNREGTTVILVTHEPHVAEKTNRIVRVLDGEIVADERRHHG | soluble
4 | MLLNEIPWTIPLTVRLSNGLTHTFASVYEALDFLENEWPLRKGERYERAVRTCRRALNRMTPAAVAREAFIAACLEAGMPLVMAPPAREPQGDTVKAAHTA | not soluble
5 | MLLREINRYCKEKATGKRIYAVPKLWIPGFFKKFDEKSGRCFVDPYELGAEITDWILNQSREWDYSQPLSFLKGEKTPDWIKRSVVYGSLPRTTAAYNHKGSGYYEENDVLGFREAGTFFKMMLLLPFVKSLGADAIYLLPVSRMSDLFKKGDAPSPYSVKNPMELDERYHDPLLEPFKVDEEFKAFVEACHILGIRVILDFIPRTAARDSDLIREHPDWFYWIKVEELADYTPPRAEELPFKVPDEDELEIIYNKENVKRHLKKFTLPPNLIDPQKWEKIKREEGNILELIVKEFGIITPPGFSDLINDPQPTWDDVTFLRLYLDHPEASKRFLDPNQPPYVLYDVIKASKFPGKEPNRELWEYLAGVIPHYQKKYGIDGARLDMGHALPKELLDLIIKNVKEYDPAFVMIAEELDMEKDKASKEAGYDVILGSSWYFAGRVEEIGKLPDIAEELVLPFLASVETPDTPRIATRKYASKMKKLAPFVTYFLPNSIPYVNTGQEIGEKQPMNLGLDTDPNLRKVLSPTDEFFGKLAFFDHYVLHWDSPDRGVLNFIKKLIKVRHEFLDFVLNGKFENLTTKDLVMYSYEKNGQKIVIAANVGKEPKEITGGRVWNGKWSDEEKVVLKPLEFALVVQE | soluble
6 | MLMFDPVPVKQEAMDPVSVSYPSNYMESMKPNKYGVIYSTPLPEKFFQTPEGLSHGIQMEPVDLTVNKRSSPPSAGNSPSSLKFRSSHRRASPGLSMPSSSPPIKKYSPPSPGVQHFGVPLSMPPVMAAALSRHGIRSPGILPVIQPVVVQPVPFMYTSHLQQPLMVSLSEEMENSSSSMQVPVIESYEKPISQKKIKIEPGIEPQRTDYYPEEMSPPLMNSVSPPQALLQE | soluble
7 | MLNIIRAGIYTSVQDSGRHGFRQSGLSHCGALDKPAFQTANLLVGNDANAPALEITLGQLVVEFENETWFALTGAGCEAQLDDQPVWTGWRLPVKAGQRLTLHRPLHGMRSYLAVAGGIAVPEVMGSYSTDLKSGIGGLEGRLLKDGDRLATGKPSRQFSGPQGVKQLLWGNRIRALPGPEYREFDRASQEAFWRSPWQLSPQSNRMGYRLQGQSLTRTTDRELLSHGLLPGVVQVPYNGQPIVLMNDAQTTGGYPRIACIIEADMYHLAQIPLGQPIHFVQCSLEEALNARRERQRYLEQLTWRLQHEHLEHHHHHH | not soluble
8 | MLNKLSLLLKDAGISLTDHQKNQLIAYVNMLHKWNKAYNLTSVRDPNEMLVRHILDSIVVAPYLQGERFIDVGTGPGLPGIPLSIVRPEAHFTLLDSLGKRVRFLRQVQHELKLENIEPVQSRVEEFPSEPPFDGVISRAFASLNDMVSWCHHLPGEQGRFYALKGQMPEDEIALLPEEYQVESVVKLQVPALDGERHLVVIKANKILEHHHHHH | not soluble
9 | MLNRIIEHMNAHHVEDMKGLLKKFGQVHHAENVAFKSVDSQGIVIGYNNNQTLRIEFNHEVKDPKDYKNATIELCQSVEKTHDLKGVEEEVKAFKEGFDSVCLATLHPNGHVVCSYAPLMSDGKQYYIYVSEVAEHFAGLKNNPHNVEVMFLEDESKAKSAILRKRLRYKTNTRFIERGAEFDKAFDSFIEKTGGAGGIKTIRAMQDFHLIALDFKEGRFVKGFGQAYDILGDKIAYVGDKGNPHNFAHKKLEHHHHHH | soluble
10 | MLNTHSCIFHRGVNGSEPLLPVVNGVNICGNPRIISCCLLPLVNPCKPMSTGFDFVAIKKSRTFTAIEIRHKNMRKMAEQQIRCAKC | not soluble
11 | MLPHTGLFLLGKVALQMRIRRRLKQGVIMAKTNNKPETAETAAPSFEDIKAELDAVQAELAAARNDVEMLTTALEKAEDDKKALSAELAELKVQHTQRAADALADSRDVMLVSTGADGKEFWRGGLLFDGGWREVKRAEVGEAVWKAICAEPMLQRKAVE | not soluble
12 | MLPQLKAQFKEREPDVREYNADILVVGGGLGGVAAALGALRNGRSVILTEAFEWIGGQLTSQAVPPDEHSWVEQFGITASYRALRTGVRQYYRDHYPLTDAARADLTLNPGDGNVSRLCHEPRVSLAVMEAMLAPFAAGGKLTILKPYEPIAADVEGDTVRAVTLRHCNTSDLVSCSARYIIDATELGDLLPLTATDYVTGFEAQSETGEPSAPAEAQPHNQQAVSICFAVDQVDGNHVIDKPARYDHWRQVAPEFWGGPLLSWDSPNPRTLERSRRFFDPNPVDNATRDVADQRHSAGDMSLWIFRRIAARHTFRPGAYASDICLVNWPMIDYFEAPIIDVTPEQYAERLADAASLSYSMFYWMQTEAPRPDGGQGFPGLRLRGDITGTEHGLAMAPYIRESRRIRALTTVVEQDLSLAVRGDRGAVHYPDSIGIGMYRIDLHPSTGGDNYIDVGACPFEIPLGALISRHKTNLLAASKNIGTTHITNGCYRLHPVEWNIGEVAGMLAAYCLDKGETPHGVHADEKRLAEFHTHIERQGVERHWPDIRGYLEHHHHHH | not soluble
13 | MLPSKEELLALLSKECELYASIPDSEQQKKRNKKHFINGLMTACRVVGISFEELNTIIEQMPKKPIFKDLDEQLSVPTYVRNRVDIKL | not soluble
14 | MLQGHRTWVFENKPVIISTGVVGGPFEAKGNIPEDFDILHEDLWLGQDSYEKAHKILFEEACSRATEKAELRKDDIQFVLAGDLINQITPTSFACRTLGTPYLGLFGACSTSMEGLALGASIVNAKGAKYLLTGASSHNTAVEKQFRYPTEYGGQKPPTAQWTVTGAGAAILSDTGHGPRVTSATIGRVIDMGLTDPFNMGGAMAPAAVDTIEAHLRERQIDASYYDLIVTGDLGHVGREIAYDLLHKHGTKVTSEQFQDCGIIIYREGQPVIAGASGPGCSATVVYGHLLNRMKRGEFKKILVVATGALLSPLTFQQEETIPCIAHAVSIEFGGATQLEHHHHHH | soluble
15 | MLQRSVFFLSDRTGITAETLGHSLLTQFDGIEWKKHYASFLDSAAKAQAVIEQINTIAEQEGQPALVFSTLLDPVMLASIRRADCVLFDFFETCLGTLEAVLQQPPARIPGRSHVLRQDASYFRRIAAIQYALNSDDGANAKILADADVIVVGVSRTGKTPVCVYLALQYGVLAANYPFTPEDMGAIQLPPLLQPLRKKLFGLTLNTSRLQSIREERYPGSHYASFAECQRELQWQNELYRQFDIPSINTTDVSIEEISASIVNRAHLERRQHGTLEHHHHHH | not soluble
16 | MLRHHSCALLMLILVFVEVFATQSPTFDRQDRDYRPLQFGKRDGYRPLQFGKRDYRPLQFGKRSSGSSGPVVLEPIWEWQ | soluble
17 | MLRHSPSLWELVEEHVPLRERREVKRILGEAAVDLSLELRAEVAMLRALLQEARSSQAPSSRPISDPSSLLAPPPLLKDLLRQELRQLLQGLRHKAICEGRDQAQAWVQYSPRVLHFALEEPRCDLPEQEIFQMRGGGPSSGHRDLSIIKDQLNVSNIDQVARHLRGLLEEECHTLEREILILQRCLEEEYLRPCHPSEAALEPTLAELKEQKKAMEQELQASVGPSCVSPNHRQRPLGSSTQGLRPPLPLCGVAPLQCCLPAPPLEPYLRPRGQSATHRWGRQLQCSPREGPASTPMSSAAPQAPA | soluble
18 | MLRIYAPASSANISVGFDTLGAAISPIDGSLLGDVVQIESISTGFELESAGYFVRKLPKEPQKNIVYQAYVLFSEQLKLRGANVKPLRLTLEKNMPIGSGLGSSACSIVAALVALNQFHNEPFSKMELLEMMGELEGRISGSIHYDNVAPCYLGGVQFMVQS | not soluble
19 | MLRKEEILERTSNGLSVFKHYVPGNWRIGRNFLNPLYEDNKASCNIYFDRRSGIYKMKDFGNDNYSGDCFFFVGQLKGLDCNNSMDFVEILETIDRDLGLGLATGNPIPVTRNSCRVVDNILEETPEKESKPYQFREQKFPLAELMYWQQYGITPEILELYKVCSLRDFQSVTADGTQFTYTSSVTEPMYGYKSKRYIKLYRPFSKTRFLYGGNFGDNYCFGLEQLPAKGDTLFITGGEKDVMSLAAHGFHAICFNSETVTVPPTLIYKLTFRFKHIILLYDTDKTGKESARKQEKQLEEFSVKRLLLPLSGTKEEKDISDYFKAGNTREDFLKLFIEFLDNLYSDTLIMLKSCEIDFNNPPAKAQVIISAGDVPLGTQGNLFGITGGEGTGKSNYIAAMLAGCICQPDKEVDTLGIQITANSKRKAVLLYDTEQSEVQLFKNVSNLLARAKQPDKPEELKAFCLTGMSRKERLHAIVQSMDKFYYQYGGIQLVVIDGIADLVKSANDEAESVAVIDELYRLAGIYNTCILCVLHFVPNGLKLRGHLGSELQRKAATILSIEKDEEPTQSVVKALKVRDGSPLDVPLMLFAWDKAAGMHLYKGEKPREEKEKRKEKELVCVARDIFGRQTHITYIDLCEQVAAGFGRERTYCQKLCSFHAGTGYYH | not soluble
20 | MLRLEEDEPSPGICDQLHEIVRSIGLLCYVACPPIPSEIIRKLAFHPPDKGATYRIELKSDPEKDLESVRDCHDEPVQLVVRDRVHPEVKVFSVTTSEDSHLVCVKCSPNCYSKNPEVANQVVLFCQSSSADLGSFLQPNSMNFSTFANLFETDVYAFDYSGYGFSSGTQSEKNMYADVRAVYEHILKTRPDKKIVVIGYSIGTTAAVDLAASNPDRLVGVVLIAPLTSALRMFCNNPDKETTCIDKICHINTRVLICHGDHDQRIPMTHGMALYENLKNPVPPLIVHGANHHSIISGEYIEVFTRIASFMRNETLLSCRANQIESSSSKKFKHE | not soluble
21 | MLSEERVKELLKKLKDLKILVVGDVILDTYLYGNVERISPEAPVPVLEVEGEEFRLGGAGNVAKNLSSLGVETYLCGVVGKDEAGKRLRELIEGNSIRSFLIEDERPTTKKTRVVSRNQQLLRIDWEDRSYISGKALEKILDVIKNLQVDGIIVSDYAKGVITEEVIKTIREKGVFYSVDPRPKHRELYRKAYLMTPNEKELREMSKFEGSVEELGKKLKEELELETLIVTRGEKGMSLFTEKGVKHFPARARKVYDVTGAGDTVIASITAFKLAGATWEECCELGNVCGGIVVGEFGTATVTPEKLLKAVKLNS | not soluble

— the DeepSol protein solubility set
